In assay [1] the target is T1, α-IGF1R heavy-LgBiT (SEQ ID NO: 119).
T1 construct: VH-CH1-linker-LgBiT; germline VH3-21*01
Put plainly: NanoBiT, HC-LgBiT:LC-SmBiT:competing LC 1:1:1; competing lambda LC m69 (SEQ ID NO: 160).

The target is the same in assay [2]. Put plainly: NanoBiT, HC-LgBiT:LC-SmBiT:competing LC 1:1:1; competing lambda LC m72 (SEQ ID NO: 163).
Assay [3] has the same target. In words: NanoBiT, HC-LgBiT:LC-SmBiT:competing LC 1:1:1; competing lambda LC m51 (SEQ ID NO: 142).
Assay [4] shares this target. Put plainly: NanoBiT, HC-LgBiT:LC-SmBiT:competing LC 1:1:1; competing lambda LC m63 (SEQ ID NO: 154).
Assay [5] addresses T2, α-IGF1R heavy-LgBiT (SEQ ID NO: 116).
T2 construct: VH-CH1-linker-LgBiT; germline VH3-23*01
Put plainly: NanoBiT, HC-LgBiT:LC-SmBiT:competing LC 1:1:1; competing lambda LC m69 (SEQ ID NO: 160).

For assay [6] the target is unchanged. Put plainly: NanoBiT, HC-LgBiT:LC-SmBiT:competing LC 1:1:1; competing lambda LC m72 (SEQ ID NO: 163).
Assay [7] has the same target. In words: NanoBiT, HC-LgBiT:LC-SmBiT:competing LC 1:1:1; competing lambda LC m54 (SEQ ID NO: 145).
Assay [8] has the same target. In words: NanoBiT, HC-LgBiT:LC-SmBiT:competing LC 1:1:1; competing lambda LC m60 (SEQ ID NO: 151).
Assay [9] shares this target. Put plainly: NanoBiT, HC-LgBiT:LC-SmBiT:competing LC 1:1:1; competing lambda LC m66 (SEQ ID NO: 157).
Assay [10] deals with T3, α-IL6R heavy-LgBiT (SEQ ID NO: 125).
T3 construct: VH-CH1-linker-LgBiT; germline VH3-9*01
In words: NanoBiT, HC-LgBiT:LC-SmBiT:competing LC 1:1:1; competing lambda LC m45 (SEQ ID NO: 136).

Assay [11] has the same target. In words: NanoBiT, HC-LgBiT:LC-SmBiT:competing LC 1:1:1; competing lambda LC m54 (SEQ ID NO: 145).
Assay [12] has the same target. Put plainly: NanoBiT, HC-LgBiT:LC-SmBiT:competing LC 1:1:1; competing lambda LC m48 (SEQ ID NO: 139).
For assay [13] the target is unchanged. In words: NanoBiT, HC-LgBiT:LC-SmBiT:competing LC 1:1:1; competing lambda LC m63 (SEQ ID NO: 154).
Assay [14] shares this target. Put plainly: NanoBiT, HC-LgBiT:LC-SmBiT:competing LC 1:1:1; competing lambda LC m66 (SEQ ID NO: 157).
Assay [15] concerns the target T4, α-IFN heavy-LgBiT (SEQ ID NO: 107).
T4 construct: VH-CH1-linker-LgBiT; germline VH5-51*01
In words: NanoBiT, HC-LgBiT:LC-SmBiT:competing LC 1:1:1; competing lambda LC m69 (SEQ ID NO: 160).

The target is the same in assay [16]. Put plainly: NanoBiT, HC-LgBiT:LC-SmBiT:competing LC 1:1:1; competing lambda LC m72 (SEQ ID NO: 163).
The target is the same in assay [17]. Put plainly: NanoBiT, HC-LgBiT:LC-SmBiT:competing LC 1:1:1; competing lambda LC m48 (SEQ ID NO: 139).
For assay [18], the target named is T5, α-CD221 heavy-LgBiT (SEQ ID NO: 134).
T5 construct: VH-CH1-linker-LgBiT; germline VH1-69*01
Put plainly: NanoBiT, HC-LgBiT:LC-SmBiT:competing LC 1:1:1; competing kappa LC m21 (SEQ ID NO: 112).

Assay [19] shares this target. In words: NanoBiT, HC-LgBiT:LC-SmBiT:competing LC 1:1:1; competing kappa LC m15 (SEQ ID NO: 106).
Assay [20] shares this target. Put plainly: NanoBiT, HC-LgBiT:LC-SmBiT:competing LC 1:1:1; competing kappa LC m42 (SEQ ID NO: 133).
Assay [21] has the same target. In words: NanoBiT, HC-LgBiT:LC-SmBiT:competing LC 1:1:1; competing kappa LC m33 (SEQ ID NO: 124).
Assay [22] addresses T6, α-death receptor 5 heavy-LgBiT (SEQ ID NO: 137).
T6 construct: VH-CH1-linker-LgBiT; germline VH3-20*01
In words: NanoBiT, HC-LgBiT:LC-SmBiT:competing LC 1:1:1; competing kappa LC m36 (SEQ ID NO: 127).

Assay [23] addresses T6, α-death receptor 5 heavy-LgBiT (SEQ ID …). Put plainly: NanoBiT, HC-LgBiT:LC-SmBiT:competing LC 1:1:1; competing kappa LC m18 (SEQ ID NO: 109).
Assay [24] shares this target. Put plainly: NanoBiT, HC-LgBiT:LC-SmBiT:competing LC 1:1:1; competing kappa LC m12 (SEQ ID NO: 103).
The target is the same in assay [25]. In words: NanoBiT, HC-LgBiT:LC-SmBiT:competing LC 1:1:1; competing kappa LC m33 (SEQ ID NO: 124).
The target in assay [26] is T7, α-neuropilin 1 heavy-LgBiT (SEQ ID NO: 131).
T7 construct: VH-CH1-linker-LgBiT; germline VH3-66*01
In words: NanoBiT, HC-LgBiT:LC-SmBiT:competing LC 1:1:1; competing lambda LC m69 (SEQ ID NO: 160).

The target of assay [27] is T7, α-neuropilin 1 heavy-LgBiT (SEQ ID NO: …). In words: NanoBiT, HC-LgBiT:LC-SmBiT:competing LC 1:1:1; competing lambda LC m45 (SEQ ID NO: 136).
The target is the same in assay [28]. Put plainly: NanoBiT, HC-LgBiT:LC-SmBiT:competing LC 1:1:1; competing lambda LC m72 (SEQ ID NO: 163).
Assay [29] has the same target. In words: NanoBiT, HC-LgBiT:LC-SmBiT:competing LC 1:1:1; competing lambda LC m54 (SEQ ID NO: 145).
Assay [30] has the same target. Put plainly: NanoBiT, HC-LgBiT:LC-SmBiT:competing LC 1:1:1; competing lambda LC m48 (SEQ ID NO: 139).
Assay [31] shares this target. In words: NanoBiT, HC-LgBiT:LC-SmBiT:competing LC 1:1:1; competing lambda LC m51 (SEQ ID NO: 142).
For assay [32] the target is unchanged. In words: NanoBiT, HC-LgBiT:LC-SmBiT:competing LC 1:1:1; competing lambda LC m63 (SEQ ID NO: 154).
The target is the same in assay [33]. Put plainly: NanoBiT, HC-LgBiT:LC-SmBiT:competing LC 1:1:1; competing lambda LC m66 (SEQ ID NO: 157).

Here are results for seven molecules from patent publication US20230272119A1 (MARENGO THERAPEUTICS, published 2023).

Residue numbers refer to the chain shown, from its start.

B1: α-IGF1R light-SmBiT (SEQ ID NO: 120) (other)
light: EIVLTQSPGTLSVSPGERATLSCRASQSIGSSLHWYQQKPGQAPRLLIKYASQSLSGIPDRFSGSGSGTDFTLTISRLEPEDFAVYYCHQSSRLPHTFGQGTKVEIKRTVAAPSVFIFPPSDEQLKSGTASVVCLLNNFYPREAKVQWKVDNALQSGNSQESVTEQDSKDSTYSLSSTLTLSKADYEKHKVYACEVTHQGLSSPVTKSFNRGECGSSGGGGSGGGGSSGGVTGYRLFEEIL
notes: kappa light chain-linker-SmBiT; germline Vk3-20*01
In the case of B1, the Percent pairing in assay [1] stood at 100%; in assay [2], 100%; in [3], 95%; in assay [4], 99%.

B2: α-IGF1R light-SmBiT (SEQ ID NO: 117) (other)
light: DIQMTQSPSSLSASLGDRVTITCRASQGISSYLAWYQQKPGKAPKLLIYAKSTLQSGVPSRFSGSGSGTDFTLTISSLQPEDSATYYCQQYWTFPLTFGGGTKVEIKRTVAAPSVFIFPPSDEQLKSGTASVVCLLNNFYPREAKVQWKVDNALQSGNSQESVTEQDSKDSTYSLSSTLTLSKADYEKHKVYACEVTHQGLSSPVTKSFNRGECGSSGGGGSGGGGSSGGVTGYRLFEEIL
notes: kappa light chain-linker-SmBiT; germline Vk1-27*01
Turning to B2, the Percent pairing in [5] was 100%; in [6], 96%; in [7], 84%; in [8], 81%; in assay [9] it was 95%.

B3: α-IL6R light-SmBiT (SEQ ID NO: 126) (other)
light: DIQMTQSPSSVSASVGDRVTITCRASQGISSWLAWYQQKPGKAPKLLIYGASSLESGVPSRFSGSGSGTDFTLTISSLQPEDFASYYCQQANSFPYTFGQGTKLEIKRTVAAPSVFIFPPSDEQLKSGTASVVCLLNNFYPREAKVQWKVDNALQSGNSQESVTEQDSKDSTYSLSSTLTLSKADYEKHKVYACEVTHQGLSSPVTKSFNRGECGSSGGGGSGGGGSSGGVTGYRLFEEIL
notes: kappa light chain-linker-SmBiT; germline Vk1-12*01
Turning to B3, the Percent pairing in assay [10] was 100%; in [11] it was 100%; in assay [12], 99%; in assay [13], 84%; in [14] it was 100%.

B4: α-IFN light-SmBiT (SEQ ID NO: 108) (other)
light: EIVLTQSPGTLSLSPGERATLSCRASQSVSSSFFAWYQQKPGQAPRLLIYGASSRATGIPDRLSGSGSGTDFTLTITRLEPEDFAVYYCQQYDSSAITFGQGTRLEIKRTVAAPSVFIFPPSDEQLKSGTASVVCLLNNFYPREAKVQWKVDNALQSGNSQESVTEQDSKDSTYSLSSTLTLSKADYEKHKVYACEVTHQGLSSPVTKSFNRGECGSSGGGGSGGGGSSGGVTGYRLFEEIL
notes: as for B1
Turning to B4, the Percent pairing worked out at 80% in [15], 100% in assay [16] and 100% in assay [17].

B5: α-CD221 light-SmBiT (SEQ ID NO: 135) (other)
light: SSELTQDPAVSVALGQTVRITCQGDSLRSYYATWYQQKPGQAPILVIYGENKRPSGIPDRFSGSSSGNTASLTITGAQAEDEADYYCKSRDGSGQHLVFGGGTKLTVLGQPKANPTVTLFPPSSEELQANKATLVCLISDFYPGAVTVAWKADGSPVKAGVETTKPSKQSNNKYAASSYLSLTPEQWKSHRSYSCQVTHEGSTVEKTVAPTECSGSSGGGGSGGGGSSGGVTGYRLFEEIL
notes: lambda light chain-linker-SmBiT; germline Vl3-19*01
In the case of B5, the Percent pairing in assay [18] is 95%; in [19] it was 96%; in assay [20] it was 100%; in [21] it was 100%.

B6: α-death receptor 5 light-SmBiT (SEQ ID NO: 138) (other)
light: B5 light with Q23S, T33S, I44V, E50A, K52N, K88N, R90A, G92S, Q95N, L97V
notes: as for B5
In the case of B6, the Percent pairing in assay [22] was 95%; in assay [23], 100%; in assay [24], 100%; in assay [25], 100%.

B7: α-neuropilin 1 light-SmBiT (SEQ ID NO: 132) (other)
light: DIQMTQSPSSLSASVGDRVTITCRASQYFSSYLAWYQQKPGKAPKLLIYGASSRASGVPSRFSGSGSGTDFTLTISSLQPEDFATYYCQQYLGSPPTFGQGTKVEIKRTVAAPSVFIFPPSDEQLKSGTASVVCLLNNFYPREAKVQWKVDNALQSGNSQESVTEQDSKDSTYSLSSTLTLSKADYEKHKVYACEVTHQGLSSPVTKSFNRGECGSSGGGGSGGGGSSGGVTGYRLFEEIL
notes: kappa light chain-linker-SmBiT; germline Vk1-39*01
B7: the Percent pairing in assay [26] was found to be 100%; in assay [27], 100%; in [28], 100%; in assay [29], 100%; in [30], 100%; in [31], 84%. The Percent pairing in assay [32] and in assay [33] was 100% throughout.
